Reference: patent publication US20230357838

Assays:
LbsDa01 (Simiaoa sunii) = system: T1, LbsDa01 (Simiaoa sunii)
T1 sequence: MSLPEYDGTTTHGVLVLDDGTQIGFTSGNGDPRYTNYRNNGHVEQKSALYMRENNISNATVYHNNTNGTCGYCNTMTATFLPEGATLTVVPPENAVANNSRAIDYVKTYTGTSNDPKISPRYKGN

[1] = system: d22_PeDa01 (Pseudomonas entomophila)
[2] = system: T2, Sso7d_LSGLSDDKLKEI_AcDa01; details: CG 0.99, CH 0.17
T2 sequence: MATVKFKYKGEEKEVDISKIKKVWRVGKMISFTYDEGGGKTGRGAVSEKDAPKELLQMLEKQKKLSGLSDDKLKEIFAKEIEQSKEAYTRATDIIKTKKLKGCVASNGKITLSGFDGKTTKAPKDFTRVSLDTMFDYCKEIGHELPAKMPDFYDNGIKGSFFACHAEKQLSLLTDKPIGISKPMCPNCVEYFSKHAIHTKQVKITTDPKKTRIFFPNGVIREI

RhDa01 = system: T3, RhDa01; details: CG 0.23, CH 0.00
T3 sequence: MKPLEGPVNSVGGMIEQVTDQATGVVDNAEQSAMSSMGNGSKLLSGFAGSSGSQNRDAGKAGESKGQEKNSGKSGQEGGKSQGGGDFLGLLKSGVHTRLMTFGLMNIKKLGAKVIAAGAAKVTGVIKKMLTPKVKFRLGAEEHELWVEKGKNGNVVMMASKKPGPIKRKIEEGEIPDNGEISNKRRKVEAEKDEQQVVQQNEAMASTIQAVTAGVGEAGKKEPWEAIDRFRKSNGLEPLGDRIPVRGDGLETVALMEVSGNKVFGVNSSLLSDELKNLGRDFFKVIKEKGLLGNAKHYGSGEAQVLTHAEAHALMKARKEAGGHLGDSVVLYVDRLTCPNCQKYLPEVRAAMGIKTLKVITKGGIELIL

LbDa02 = system: T4, LbDa02; details: NGS assay; Table 1 prints SEQ 19 for this name
T4 sequence: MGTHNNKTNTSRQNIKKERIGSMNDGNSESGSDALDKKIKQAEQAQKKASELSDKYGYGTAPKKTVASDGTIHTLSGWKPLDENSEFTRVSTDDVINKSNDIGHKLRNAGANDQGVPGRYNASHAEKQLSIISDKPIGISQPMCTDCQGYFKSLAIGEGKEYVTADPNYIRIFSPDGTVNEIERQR

DddA = DddA (UniProt P0DUH5)
Sso7d_GGGVTS_AcDa01 = system: T5, Sso7d_GGGVTS_AcDa01; details: CG 0.79, CH 0.03
T5 sequence: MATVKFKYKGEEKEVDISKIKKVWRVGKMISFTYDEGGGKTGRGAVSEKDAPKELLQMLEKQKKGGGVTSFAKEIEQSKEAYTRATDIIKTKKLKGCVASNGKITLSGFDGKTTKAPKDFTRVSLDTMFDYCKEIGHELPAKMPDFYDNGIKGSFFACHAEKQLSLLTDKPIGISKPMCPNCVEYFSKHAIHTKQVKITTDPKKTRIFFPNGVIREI

HcDa01 = system: T6, HcDa01
T6 sequence: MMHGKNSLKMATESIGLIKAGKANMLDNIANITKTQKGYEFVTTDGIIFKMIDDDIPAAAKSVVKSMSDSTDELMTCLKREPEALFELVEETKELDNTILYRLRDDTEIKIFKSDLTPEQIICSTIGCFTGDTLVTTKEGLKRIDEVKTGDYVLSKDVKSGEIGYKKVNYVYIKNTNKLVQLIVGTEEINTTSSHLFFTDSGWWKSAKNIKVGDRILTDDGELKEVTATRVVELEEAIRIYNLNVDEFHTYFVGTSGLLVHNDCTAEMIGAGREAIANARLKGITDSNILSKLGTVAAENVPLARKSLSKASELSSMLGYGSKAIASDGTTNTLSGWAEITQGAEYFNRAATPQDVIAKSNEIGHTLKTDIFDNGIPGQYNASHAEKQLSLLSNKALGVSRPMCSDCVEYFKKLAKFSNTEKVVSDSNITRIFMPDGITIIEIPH

Sso7d_VTAGVGEAG_MGYPDa20 = system: T7, Sso7d_VTAGVGEAG_MGYPDa20
T7 sequence: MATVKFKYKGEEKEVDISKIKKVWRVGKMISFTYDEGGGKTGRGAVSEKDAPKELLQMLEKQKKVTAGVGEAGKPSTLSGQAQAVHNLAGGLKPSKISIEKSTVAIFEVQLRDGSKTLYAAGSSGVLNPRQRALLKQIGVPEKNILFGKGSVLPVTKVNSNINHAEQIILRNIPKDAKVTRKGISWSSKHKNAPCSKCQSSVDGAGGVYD

RhDa01_extN10 = system: T8, RhDa01_extN10; details: CG 0.32, CH 0.00
T8 sequence: T3 sequence

Sso7d_RhDa01_extN10 = system: T9, Sso7d_RhDa01_extN10
T9 sequence: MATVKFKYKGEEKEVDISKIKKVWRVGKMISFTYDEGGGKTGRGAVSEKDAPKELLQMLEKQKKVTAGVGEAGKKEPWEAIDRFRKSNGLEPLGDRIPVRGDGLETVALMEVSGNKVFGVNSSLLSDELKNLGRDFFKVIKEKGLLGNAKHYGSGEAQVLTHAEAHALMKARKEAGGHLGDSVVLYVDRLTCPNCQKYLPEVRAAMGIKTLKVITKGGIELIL

“unmodified dsDNA (E. coli C2566 genomic)” gave an activity (fraction deaminated) (LbsDa01 (Simiaoa sunii)) of 0.889, an activity (fraction deaminated) (SsDa01) of 0 and an activity (fraction deaminated) [1] of 0.79. For the same substance, the activity (fraction deaminated) [2] was 0.41, the activity (fraction deaminated) (RhDa01) was 0.07 and the activity (fraction deaminated) (LbDa02) was 1. For the same substance, the activity (fraction deaminated) (DddA) was 0.27, the activity (fraction deaminated) (Sso7d_GGGVTS_AcDa01) was 0.26 and the activity (fraction deaminated) (HcDa01) was 0. The activity (fraction deaminated) (Sso7d_VTAGVGEAG_MGYPDa20) was 0.72, the activity (fraction deaminated) (RhDa01_extN10) was 0.1 and the activity (fraction deaminated) (Sso7d_RhDa01_extN10) was 0.93.
